# Data from doi:10.1101/681668 (bioRxiv, 2019).
# Residue numbers refer to the chain shown, from its start.
# B1: MBP-ORC1 1-240 (domain or fragment)
# chain: MAHYPTRLKTRKTYSWVGRPLLDRKLHYQTYREMCVKTEGCSTEIHIQIGQFVLIEGDDDENPYVAKLLELFEDDSDPPPKKRARVQWFVRFCEVPACKRHLLGRKPGAQEIFWYDYPACDSNINAETIIGLVRVIPLAPKDVVPTNLKNEKTLFVKLSWNEKKFRPLSSELFAELNKPQESAAKCQKPVRAKSKSAESPSWTPAEHVAKRIESRHSASKSRQTPTHPLTPRARKRLELG
# B2: MBP-ORC1 180-400 (domain or fragment)
# chain: QESAAKCQKPVRAKSKSAESPSWTPAEHVAKRIESRHSASKSRQTPTHPLTPRARKRLELGNLGNPQMSQQTSCASLDSPGRIKRKVAFSEITSPSKRSQPDKLQTLSPALKAPEKTRETGLSYTEDDKKASPEHRIILRTRIAASKTIDIREERTLTPISGGQRSSVVPSVILKPENIKKRDAKEAKAQNEATSTPHRIRRKSSVLTMNRIRQQLRFLGN
# B3: MBP-ORC1 fragment (165-250) (domain or fragment)
# chain: FRPLSSELFAELNKPQESAAKCQKPVRAKSKSAESPSWTPAEHVAKRIESRHSASKSRQTPTHPLTPRARKRLELGNLGNPQMSQQ
# B4: MBP-ORC1-180-240 (domain or fragment)
# chain: QESAAKCQKPVRAKSKSAESPSWTPAEHVAKRIESRHSASKSRQTPTHPLTPRARKRLELG
# B5: MBP-ORC1-230-400 (domain or fragment)
# chain: TPRARKRLELGNLGNPQMSQQTSCASLDSPGRIKRKVAFSEITSPSKRSQPDKLQTLSPALKAPEKTRETGLSYTEDDKKASPEHRIILRTRIAASKTIDIREERTLTPISGGQRSSVVPSVILKPENIKKRDAKEAKAQNEATSTPHRIRRKSSVLTMNRIRQQLRFLGN
# B6: MBP-ORC1-230-400 A-A (domain or fragment)
# chain: B5 chain with K6A, L8A
# B7: MBP-ORC1-350-400 (domain or fragment)
# chain: SVILKPENIKKRDAKEAKAQNEATSTPHRIRRKSSVLTMNRIRQQLRFLGN
# B8: ORC1-180-240-His (domain or fragment)
# chain: B4 chain
# B9: MBP-ORC1-100-250 (domain or fragment)
# chain: RHLLGRKPGAQEIFWYDYPACDSNINAETIIGLVRVIPLAPKDVVPTNLKNEKTLFVKLSWNEKKFRPLSSELFAELNKPQESAAKCQKPVRAKSKSAESPSWTPAEHVAKRIESRHSASKSRQTPTHPLTPRARKRLELGNLGNPQMSQQ
# B10: GST-CDC6 1-110 (domain or fragment)
# chain: MPQTRSQAQATISFPKRKLSRALNKAKNSSDAKLEPTNVQTVTCSPRVKALPLSPRKRLGDDNLCNTPHLPPCSPPKQGKKENGPPHSHTLKGRRLVFDNQLTIKSPSKR
# B11: GST-CDC6 with internal deletion of 11-20 (natural protein)
# chain: MPQTRSQAQARALNKAKNSSDAKLEPTNVQTVTCSPRVKALPLSPRKRLGDDNLCNTPHLPPCSPPKQGKKENGPPHSHTLKGRRLVFDNQLTIKSPSKRELAKVHQNKILSSVRKSQEITTNSEQRCPLKKESACVRLFKQEGTCYQQAKLVLNTAVPDRLPAREREMDVIRNFLREHICGKKAGSLYLSGAPGTGKTACLSRILQDLKKELKGFKTIMLNCMSLRTAQAVFPAIAQEICQEEVSRPAGKDMMRKLEKHMTAEKGPMIVLVLDEMDQLDSKGQDVLYTLFEWPWLSNSHLVLIGIANTLDLTDRILPRLQAREKCKPQLLNFPPYTRNQIVTILQDRLNQVSRDQVLDNAAVQFCARKVSAVSGDVRKALDVCRRAIEIVESDVKSQTILKPLSECKSPSEPLIPKRVGLIHISQVISEVDGNRMTLSQEGAQDSFPLQQKILVCSLMLLIRQLKIKEVTLGKLYEAYSKVCRKQQVAAVDQSECLSLSGLLEARGILGLKRNKETRLTKVFFKIEEKEIEHALKDKALIGNILATGLP
# B12: GST-CDC6 with internal deletion of 21-30 (natural protein)
# chain: B11 chain with R11T, A12I, L13S, N14F, K15P, A16K, K17R, N18K, S19L
# B13: GST-CDC6 with internal deletion of 51-70 (natural protein)
# chain: MPQTRSQAQATISFPKRKLSRALNKAKNSSDAKLEPTNVQTVTCSPRVKAPPCSPPKQGKKENGPPHSHTLKGRRLVFDNQLTIKSPSKRELAKVHQNKILSSVRKSQEITTNSEQRCPLKKESACVRLFKQEGTCYQQAKLVLNTAVPDRLPAREREMDVIRNFLREHICGKKAGSLYLSGAPGTGKTACLSRILQDLKKELKGFKTIMLNCMSLRTAQAVFPAIAQEICQEEVSRPAGKDMMRKLEKHMTAEKGPMIVLVLDEMDQLDSKGQDVLYTLFEWPWLSNSHLVLIGIANTLDLTDRILPRLQAREKCKPQLLNFPPYTRNQIVTILQDRLNQVSRDQVLDNAAVQFCARKVSAVSGDVRKALDVCRRAIEIVESDVKSQTILKPLSECKSPSEPLIPKRVGLIHISQVISEVDGNRMTLSQEGAQDSFPLQQKILVCSLMLLIRQLKIKEVTLGKLYEAYSKVCRKQQVAAVDQSECLSLSGLLEARGILGLKRNKETRLTKVFFKIEEKEIEHALKDKALIGNILATGLP
# B14: GST-CDC6 with internal deletion of 71-90 (natural protein)
# chain: MPQTRSQAQATISFPKRKLSRALNKAKNSSDAKLEPTNVQTVTCSPRVKALPLSPRKRLGDDNLCNTPHLLKGRRLVFDNQLTIKSPSKRELAKVHQNKILSSVRKSQEITTNSEQRCPLKKESACVRLFKQEGTCYQQAKLVLNTAVPDRLPAREREMDVIRNFLREHICGKKAGSLYLSGAPGTGKTACLSRILQDLKKELKGFKTIMLNCMSLRTAQAVFPAIAQEICQEEVSRPAGKDMMRKLEKHMTAEKGPMIVLVLDEMDQLDSKGQDVLYTLFEWPWLSNSHLVLIGIANTLDLTDRILPRLQAREKCKPQLLNFPPYTRNQIVTILQDRLNQVSRDQVLDNAAVQFCARKVSAVSGDVRKALDVCRRAIEIVESDVKSQTILKPLSECKSPSEPLIPKRVGLIHISQVISEVDGNRMTLSQEGAQDSFPLQQKILVCSLMLLIRQLKIKEVTLGKLYEAYSKVCRKQQVAAVDQSECLSLSGLLEARGILGLKRNKETRLTKVFFKIEEKEIEHALKDKALIGNILATGLP
# Biological target: T1, GST-CDC6 (human, UniProt Q99741 1-560)
# T1 sequence: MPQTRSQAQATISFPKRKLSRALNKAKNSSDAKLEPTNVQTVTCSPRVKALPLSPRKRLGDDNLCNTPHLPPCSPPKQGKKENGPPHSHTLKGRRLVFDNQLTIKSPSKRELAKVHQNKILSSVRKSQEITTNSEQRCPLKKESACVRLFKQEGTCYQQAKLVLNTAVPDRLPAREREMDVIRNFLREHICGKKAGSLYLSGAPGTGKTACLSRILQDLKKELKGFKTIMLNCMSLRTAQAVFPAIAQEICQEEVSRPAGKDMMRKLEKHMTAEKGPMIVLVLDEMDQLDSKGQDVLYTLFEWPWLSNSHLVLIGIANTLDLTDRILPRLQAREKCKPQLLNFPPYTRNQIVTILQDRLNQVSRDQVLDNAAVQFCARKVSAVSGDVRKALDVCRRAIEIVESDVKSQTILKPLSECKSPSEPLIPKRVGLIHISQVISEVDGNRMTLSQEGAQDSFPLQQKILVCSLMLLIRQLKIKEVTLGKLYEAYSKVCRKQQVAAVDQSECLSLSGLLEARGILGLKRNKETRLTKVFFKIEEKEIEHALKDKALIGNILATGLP
# Assay: pull-down
row,Binder,binding result
1,B1,binds
2,B2,binds
3,B3,binds
4,B4,binds
5,B5,binds
6,B6,binds
7,B7,binds

# Biological target: B5
# Assay: pull-down
row,Binder,binding result
1,B8,binds

# Biological target: B8
# Assay: pull-down
row,Binder,binding result
1,B7,binds

# Biological target: T2, ORC1 230-400-His (human, UniProt Q13415 230-400)
# T2 sequence: B5 chain
# Assay: pull-down
row,Binder,binding result
1,B9,binds

# Biological target: T3, MBP-ORC1 (human, UniProt Q13415 1-861)
# T3 sequence: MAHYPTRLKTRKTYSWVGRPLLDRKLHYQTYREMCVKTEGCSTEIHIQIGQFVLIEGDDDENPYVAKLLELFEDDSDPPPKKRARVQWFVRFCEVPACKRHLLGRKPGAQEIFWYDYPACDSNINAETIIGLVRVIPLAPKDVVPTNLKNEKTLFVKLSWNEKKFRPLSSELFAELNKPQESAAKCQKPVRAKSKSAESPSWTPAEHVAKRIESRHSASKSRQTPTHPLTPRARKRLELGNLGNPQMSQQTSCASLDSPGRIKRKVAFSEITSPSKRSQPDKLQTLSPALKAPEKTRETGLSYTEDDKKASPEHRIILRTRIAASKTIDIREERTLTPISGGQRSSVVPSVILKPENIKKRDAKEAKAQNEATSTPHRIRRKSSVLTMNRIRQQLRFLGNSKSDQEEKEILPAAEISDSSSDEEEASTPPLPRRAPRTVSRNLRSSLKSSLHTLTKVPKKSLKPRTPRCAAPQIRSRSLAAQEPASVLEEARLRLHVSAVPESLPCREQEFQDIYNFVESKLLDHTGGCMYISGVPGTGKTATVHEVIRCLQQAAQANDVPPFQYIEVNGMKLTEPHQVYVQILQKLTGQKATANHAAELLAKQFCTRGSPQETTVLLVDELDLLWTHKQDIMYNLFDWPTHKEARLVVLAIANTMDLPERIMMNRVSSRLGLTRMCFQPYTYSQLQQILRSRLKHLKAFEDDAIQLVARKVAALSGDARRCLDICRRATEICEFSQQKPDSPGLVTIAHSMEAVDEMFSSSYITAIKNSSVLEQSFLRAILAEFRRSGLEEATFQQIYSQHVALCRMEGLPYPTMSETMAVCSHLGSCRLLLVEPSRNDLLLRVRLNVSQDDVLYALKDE
# Assay: pull-down
row,Binder,binding result
1,B10,binds
2,B11,binds
3,B12,binds
4,B13,binds
5,B14,binds
